Results reported in the RNAGym collection of RNA variant scans (doi:10.1093/molbev/msab373).

B1: Azoarcus group I ribozyme (parent)
chain: GUGCCUUGCGCCGGGAAACCACGCAAGGGAUGGUGUCAAAUUCGGCGAAACCUAAGCGCCCGCCCGGGCGUAUGGCAACGCCGAGCCAAGCUUCGGCGCCUGCGCCGAUGAAGGUGUAGAGACUAGACGGCACCCACCUAAGGCAAACGCUAUGGUGAAGGCAUAGUCCAGGGAGUGGCGAAAGUCACACAAACCGG

Variants of: B1
Experiment: reverse-splicing fitness (ratio to wild type); higher = more active; in vitro selection; Mg2+ level not given
Summary of the method: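 An in vitro group I ribozyme library with randomized positions was T7-transcribed and gel-purified. In triplicate, 10 pmol RNA in EPPS pH 7.5 was reacted with 50 pmoles of a 30-nt RNA substrate for 1 h at 37 °C across several added MgCl2 levels (1–48 mM), then stopped with EDTA. Products were reverse transcribed from a substrate-complementary primer, PCR-amplified and sequenced (HiSeq 4000). Fitness is a variant's read proportion after selection over that before, normalised to wild type.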

Variant | reverse-splicing fitness
A111C A120U A145C C150A C169A U176G | 0.00226
A111C A120U A145C C150A C169A U176C | 0.00233
A111C A120U A145C C150A C169A U176A | 0.00259
A111C A120U A145G C169U | 0.0781
A111C A120U A145G C169A | 0.00474
A111C A120U A145G C169G | 0.0583
A111C A120G A145G C150A C169A | 0.02
A111C A120G A145G C150A C169G | 0.0313
A111C A120G A145G C150A C169U | 0.0326
A111C A120G C169U | 0.17
A111C A120G C169A | 0.131
A111C A120G C169G | 0.22
A111C A120U A145C C150G C169U U176C | 0.00313
A111C A120U A145C C150G C169U U176A | 0.00402
A111C A120U A145C C150G C169U U176G | 0.0023
A111C A120G A145C C169U U176G | 0.00492
A111C A120G A145C C169U U176A | 0.0395
A111C A120G A145C C169U U176C | 0.0394
A111C A120G A145U C150G C169G | 0.0203
A111C A120G A145U C150G C169U | 0.0209
A111C A120G A145U C150G C169A | 0.0153
A111C A120G C150U C169A U176C | 0.0197
A111C A120G C150U C169A U176A | 0.0176
A111C A120G C150U C169A U176G | 0.00513

Variant | reverse-splicing fitness
A111C A120U A145C C169G U176G | 0.0018
A111C A120U A145C C169G U176C | 0.00626
A111C A120U A145C C169G U176A | 0.00676
A111C A120G A145U C169U U176A | 0.042
A111C A120G A145U C169U U176C | 0.0424
A111C A120G A145U C169U U176G | 0.00716
A111C A120U A145G C150U C169A U176G | 0.00278
A111C A120U A145G C150U C169A U176A | 0.00648
A111C A120U A145G C150U C169A U176C | 0.00404
A111C A120G A145U C150U C169U U176C | 0.0353
A111C A120G A145U C150U C169U U176A | 0.034
A111C A120G A145U C150U C169U U176G | 0.00595
A111C A120U A145C C150A C169G U176G | 0.0024
A111C A120U A145C C150A C169G U176A | 0.00305
A111C A120U A145C C150A C169G U176C | 0.00302
A111C A120G A145U C169U | 0.174
A111C A120G A145U C169A | 0.128
A111C A120G A145U C169G | 0.203
A111C A120G A145G C150U C169A U176C | 0.0222
A111C A120G A145G C150U C169A U176G | 0.00548
A111C A120G A145G C150U C169A U176A | 0.0192
A111C A120G A145G C150G C169G | 0.0248
A111C A120G A145G C150G C169U | 0.0264
A111C A120G A145G C150G C169A | 0.0166

Variant | reverse-splicing fitness
A111C A120G C150A U176A | 0.0175
A111C A120G C150A U176C | 0.0209
A111C A120G C150A U176G | 0.00592
A111C A120U A145U C150A C169A U176A | 0.00258
A111C A120U A145U C150A C169A U176C | 0.00244
A111C A120U A145U C150A C169A U176G | 0.00209
A111C A120G C150G C169G U176C | 0.00473
A111C A120G C150G C169G U176G | 0.00457
A111C A120G C150G C169G U176A | 0.0066
A111C A120G A145U C150A C169G U176G | 0.00467
A111C A120G A145U C150A C169G U176C | 0.0176
A111C A120G A145U C150A C169G U176A | 0.0123
A111C A120G A145G C150A C169G U176A | 0.0195
A111C A120G A145G C150A C169G U176C | 0.0342
A111C A120G A145G C150A C169G U176G | 0.00523
A111C A120G C150A | 0.0211
A111C A120G C150G | 0.0159
A111C A120G C150U | 0.0912
A111C A120U A145G C169G U176C | 0.0098
A111C A120U A145G C169G U176A | 0.0064
A111C A120U A145G C169G U176G | 0.00174
A111C A120G C150A C169U U176A | 0.0211
A111C A120G C150A C169U U176G | 0.0056
A111C A120G C150A C169U U176C | 0.024

Variant | reverse-splicing fitness
A111C A120U A145G C169A U176G | 0.00216
A111C A120U A145G C169A U176A | 0.00375
A111C A120U A145G C169A U176C | 0.00408
A111C A120G A145G C150G C169U U176G | 0.00619
A111C A120G A145G C150G C169U U176A | 0.0115
A111C A120G A145G C150G C169U U176C | 0.0161
A111C A120U A145C C150G C169G | 0.00714
A111C A120U A145C C150G C169A | 0.00389
A111C A120U A145C C150G C169U | 0.0105
A111C A120G A145U C169A U176C | 0.0182
A111C A120G A145U C169A U176G | 0.0051
A111C A120G A145U C169A U176A | 0.0166
A111C A120G C150U C169U U176C | 0.0371
A111C A120G C150U C169U U176A | 0.0337
A111C A120G C150U C169U U176G | 0.00549
A111C A120G A145G C150A C169A U176G | 0.0058
A111C A120G A145G C150A C169A U176A | 0.0174
A111C A120G A145G C150A C169A U176C | 0.022
A111C A120G A145G | 0.189
A111C A120G A145U | 0.179
A111C A120G A145U C150A C169G | 0.0221
A111C A120G A145U C150A C169A | 0.0145
A111C A120G A145U C150A C169U | 0.018
A111C A120G C150U U176G | 0.00599

Variant | reverse-splicing fitness
A111C A120G C150U U176A | 0.0245
A111C A120G C150U U176C | 0.0344
A111C A120G C150G U176A | 0.0109
A111C A120G C150G U176G | 0.00348
A111C A120G C150G U176C | 0.0173
A111C A120U A145G C150G C169G U176C | 0.00876
A111C A120U A145G C150G C169G U176G | 0.00386
A111C A120U A145G C150G C169G U176A | 0.00935
A111C A120U A145C C169A U176C | 0.00231
A111C A120U A145C C169A U176G | 0.00212
A111C A120U A145C C169A U176A | 0.00217
A111C A120G A145G C150G | 0.0228
A111C A120G A145G C150A | 0.0307
A111C A120G A145G C150U | 0.139
A111C A120G A145U C150G C169U U176G | 0.00442
A111C A120G A145U C150G C169U U176C | 0.0151
A111C A120G A145U C150G C169U U176A | 0.0111
A111C A120U A145G C150A C169U U176C | 0.00638
A111C A120U A145G C150A C169U U176G | 0.00263
A111C A120U A145G C150A C169U U176A | 0.00876
A111C A120G A145U C150A C169U U176A | 0.0198
A111C A120G A145U C150A C169U U176C | 0.0173
A111C A120G A145U C150A C169U U176G | 0.0045
A111C A120U A145G C150A C169U | 0.0133

Variant | reverse-splicing fitness
A111C A120U A145G C150A C169A | 0.0061
A111C A120U A145G C150A C169G | 0.0103
A111C A120U A145C C150G C169G U176G | 0.00227
A111C A120U A145C C150G C169G U176A | 0.00265
A111C A120U A145C C150G C169G U176C | 0.0032
A111C A120G A145U C150A U176A | 0.0126
A111C A120G A145U C150A U176C | 0.0176
A111C A120G A145U C150A U176G | 0.0043
A111C A120G A145G C150U U176A | 0.0273
A111C A120G A145G C150U U176G | 0.00709
A111C A120G A145G C150U U176C | 0.04
A111C A120U A145G C150U C169G U176A | 0.0074
A111C A120U A145G C150U C169G U176G | 0.00262
A111C A120U A145G C150U C169G U176C | 0.00994
A111C A120G C169A U176A | 0.0221
A111C A120G C169A U176C | 0.0306
A111C A120G C169A U176G | 0.00418
A111C A120G A145G C150U C169U U176C | 0.0446
A111C A120G A145G C150U C169U U176G | 0.00498
A111C A120G A145G C150U C169U U176A | 0.0338
A111C A120G A145U C150U C169A | 0.0731
A111C A120G A145U C150U C169G | 0.133
A111C A120G A145U C150U C169U | 0.106
A111C A120U A145C C150A C169U U176A | 0.00457

Variant | reverse-splicing fitness
A111C A120U A145C C150A C169U U176C | 0.00283
A111C A120U A145C C150A C169U U176G | 0.00242
A111C A120U A145G C150G | 0.0721
A111C A120U A145G C150U | 0.549
A111C A120U A145G C150A | 0.099
A111C A120U A145G C150U U176G | 0.0303
A111C A120U A145G C150U U176A | 0.184
A111C A120U A145G C150U U176C | 0.239
A111C A120G A145G C150G U176C | 0.0155
A111C A120G A145G C150G U176A | 0.00942
A111C A120G A145G C150G U176G | 0.00613
A111C A120G A145G C150A U176C | 0.0252
A111C A120G A145G C150A U176A | 0.0132
A111C A120G A145G C150A U176G | 0.0068
A111C A120G A145U C150G C169A U176A | 0.0089
A111C A120G A145U C150G C169A U176C | 0.0112
A111C A120G A145U C150G C169A U176G | 0.00487
A111C A120G A145G C169U U176A | 0.0413
A111C A120G A145G C169U U176C | 0.045
A111C A120G A145G C169U U176G | 0.00448
A111C A120U A145G U176A | 0.221
A111C A120U A145G U176G | 0.0786
A111C A120U A145G U176C | 0.277
